The series can be described thus: yeast display, Sf9 membrane polyspecificity reagent, FACS + sequencing; frameworks hold sequencing errors. The method in brief: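 A nanobody's polyreactivity label depends on the gate it was sorted from. Yeast display cells were stained with 10% biotinylated, detergent-solubilized Sf9 membrane reagent for 1 hour at 4 °C, enriched on streptavidin microbeads and sorted by FACS. The low and high (top ~1%) gates were set on anti-HA fluorescence for expression and streptavidin fluorescence for reagent binding.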
Regarding “QVQLVESGGGLVQAGGSLRLTCSASGFIFRYYAKGWSRQAPGKERELVAAISTSGGSTYYADSVKGRFTISRDIAKNTVYLQMNSLKPEDTAVYYCAASTNTDRDFWGQGTQVTVSS”, the “polyreactivity (PSR sort gate)” value is given as “high polyreactivity”.

Regarding “QVQLVESGGGLVQAGGSLRLTWAASGSIFTYYTRGWYRQAPGKERELVATIRYTGGNTYYADSVKGRFTISRDNAKNTVYLQMNILKPEDTAVYYCATGYSYRNVPTFRWLYYWGQGTQVTVSS”, the “polyreactivity (PSR sort gate)” value is reported as “low polyreactivity”.

Consider “QVQLVESGGGLVQAGGSLRVSCAASGFIFVRNTMVWYRQAPGKERELVAGIRYSGGSTYYADSVKGRFTISRDNAKNTVFLQMNSQKTEDTAVYYCAARSHRRLMYYWGQGTQVNVSS”, for which the “polyreactivity (PSR sort gate)” value was “high polyreactivity”.

Take “QVQLVESGGGLVQAGGSLRVSCAASGFTFPWYAMGWYRPAPGKERELVASISYRGDSTYYADSVKGRFTISRDNAKITVYLQMNSLKPEDTSVYYCNKRLDSYYLPGFDYWGQGTQVTVSS”: the “polyreactivity (PSR sort gate)” value is given as “low polyreactivity”.

As for “QVQLVESGGGLVQAGGSLRVSCAASGFTLQRNTMGWYRQAPGKEREFVAAISVRGGSTYYADSVKGRFTISRDNAQNTVYLQMNSLKPEDTAVYYCAAVGRPTQYSYPYGYWGQGTQVTVSS”, the “polyreactivity (PSR sort gate)” value was “high polyreactivity”.

“QVQLVESGGGLVQAGGSLRVSCAASGIIFNRYAMGWSREAPGKERELVAAITSSGGSTHYADSVKGRFTISRDNAKNTVYLQMNSLKPEDTAVYYCAKQFPYNYRYYLHYYYWGQGTQVTVSS”: the “polyreactivity (PSR sort gate)” value is recorded as “low polyreactivity”.

With “QVQLVESGGGLVQAGGSLRVSCAASGIIFRYNAMGWSRQAPGKESELVAAITSGGITKYADSVKGRFTISRDNAKNTVYLQMNSLKPEDTAVYYCNAEYGFDRAGSRGEYWGQCTQVTVSS”, the “polyreactivity (PSR sort gate)” value was “low polyreactivity”.

Consider “QVQLVESGGGLVQAGGSLRVSCAASGITSPYNAMGWYRQAPGKERELVAGITSGDSTDYADSVKGRFTISRDNAKNTVYLQMNSLKPEDTAVYYCAADSIRYCDYDYWGHGTQVTVSS”, for which the “polyreactivity (PSR sort gate)” value was “low polyreactivity”.

For “QVQLVESGGGLVQAGGSLRVSCAASGLIFYRYAMGWYRQAPGKERELVAAITTRGGSTYYADSVKGRFTISRDNAKITVYLQMNSLKPEDTAVYYCATYFRAKGYTGRYYYWGQGTQVTVSS”, the “polyreactivity (PSR sort gate)” value is listed as “high polyreactivity”.

As to “QVQLVESGGGLVQAGGSLRVSCAASGRIFDENAMGWYRPAPGKERELVAAIDWSGGSTYYADSVKGRFTISRDYAKNTVYLQMNRQKPEDTAVYYCNADYYYYVSLGWWSFIVSEYDYWGHGTQVTVSS”, the “polyreactivity (PSR sort gate)” value is recorded as “low polyreactivity”.

With “QVQLVESGGGLVQAGGSLRVSCAASGRNFYYYAMGGYRQAPGKERELVAAINWSGGGTYYADSVKGRFTISRDNAKNTVYFQMNSLKPEDTAVYYCAAGFRYRYYWGQGTQVTVSS”, the “polyreactivity (PSR sort gate)” value is given as “high polyreactivity”.

In the case of “QVQLVESGGGLVQAGGSLRVSCAASGRTFRPNAMGWYRQAPGKERELVAAISGGGGSTYYADSVKGRFTISRDIAKNTVYLLMNSLKPEVTAVYYCNKVEQGRYGYWGQGTQVTVSS”, the “polyreactivity (PSR sort gate)” value is given as “high polyreactivity”.

With “QVQLVESGGGLVQAGGSLRVSCAASGRTSSINAMGWYREAPGKERELVAVITGRGGSTYYADSVKGRCTISRDNAKNTVYLQINSLKPEDTAVYYCAARRVPSVSGTYDYWGQGTQVTVSS”, the “polyreactivity (PSR sort gate)” value is “high polyreactivity”.

As for “QVQLVESGGGLVQAGGSLRVSCAASGSIFQANAMGGYRQAPGKERELVAASRWSGGSTNYPDSVKGRFSISRDNAKNTVYLPMNSLKPEDTAVYYCAAKRFSSPYWEYYWGQGTQVTVSS”, the “polyreactivity (PSR sort gate)” value is “high polyreactivity”.

As to “QVQLVESGGGLVQAGGSLRVSCAASGSNFLGYTMGWYRQAPGKERELVAAINSSGGSTYYADSVKGRFTISRDNAKNNVYLQMNSLKPEDTAVYYCADANSILLFDSWGQGTQVTVSS”, the “polyreactivity (PSR sort gate)” value is “low polyreactivity”.

For the sequence “QVQLVESGGGLVQAGGSLRVSCAASGSTFQYNAMGWYRQAPGKERELVAVITRRGGRTYYADSVKGRFTISRDNAKNSVYLQLNSLKAEDTAVYYCAAYFDYTHRFYYWGQGTQVTVSS”, the “polyreactivity (PSR sort gate)” value was “high polyreactivity”.

As for “QVQLVESGGGLVQAGGSLRVSCAASGSTFRRNNMGWYRQAPGKERELVAGISSSGGSTYYADSVKGRFTISRDNAKNTVYLQMNSLKPEDTAVYYCDARFYVSYVGYNYWGQGTQVTVSS”, the “polyreactivity (PSR sort gate)” value is “high polyreactivity”.

“QVQLVESGGGLVQAGGSLRVSCAASGSTFWSYAMGGYRQAPGKARELVAGITQSGGSTYYADSVKGRFTISRDTAKHTLYLQMNSLQPEDTAVYDCAKDGRVSGDFDYWGQGTQGTVSS”: the “polyreactivity (PSR sort gate)” value is “low polyreactivity”.

With “QVQLVESGGGLVQAGGSLRVSCAASGYIFYGNTMGWYRQAPGKEWELVAAISYDGGSTYYADSVKGRFTISRDNAKNTVYLQMNSLKPEDTAVYYCAADTFSFRWSDYWGQGTQVTVSS”, the “polyreactivity (PSR sort gate)” value was “low polyreactivity”.

For “QVQLVESGGGLVQAGGSLRVSCAASGYTIKYYAMGWYRQAPGKERELVAAISKDGGSTYYADSVKGRFTISRDNAKNTVYLQMNSLKPEDTAVYYCAAKSNVRYGWREFYWGQGTQVTVSS”, the “polyreactivity (PSR sort gate)” value is recorded as “high polyreactivity”.

Turning to “QVQLVESGGGLVQAGGSLRVSCAAYGRIFLANAMGGYRTAAGKERELVAAISYSGGSTYYADSVKGRFTISRDNAKNTVYLQMNSLKPEDTAVYYCAADAFTWYTGRAWKYYYWGHGTQVTVSS”, the “polyreactivity (PSR sort gate)” value is given as “low polyreactivity”.

Turning to “QVQLVESGGGLVQAGGSLRVSCADSGGIFALNDMGWYRQAPGKERELVAAINGAGTYYADSVKGRFTISRDNAKNTVYLQRNSLKPEDTAVYYCARGSLHWEYARTWTRVEYDYWGQGTQVTVSS”, the “polyreactivity (PSR sort gate)” value is listed as “low polyreactivity”.

As to “QVQLVESGGGLVQAGGSLRVSCAPSGGTFGYYTMGWYRQAPGTERELVAAISSGGGTDYADSVKGRFTISRDNAKNTVYLQMNSLKPEDTAVYYCNAKWLELHYVFLPSYTMDYWGHGTQVTVSS”, the “polyreactivity (PSR sort gate)” value is “low polyreactivity”.

Consider “QVQLVESGGGLVQAGGSLRVSCAPSGRTFRYNTMGWYRPAPGKERELVARITWSGGSTYYADSVKGRFTISRDNAKNTVYLQMNSLKPEDTAVSYCAAGSGWRFDYWGQGTQVTVSS”, for which the “polyreactivity (PSR sort gate)” value is on record as “low polyreactivity”.

Take “QVQLVESGGGLVQAGGSLRVSCASSGFTFVYYAMVWYRQAPGKERELVATISGNGGRTYYADSVKGRFTISRDNAKNTVYLLMHSLKPEDTAVYYSAALLYIRSVGDDYWGQGTKVTVSS”: the “polyreactivity (PSR sort gate)” value is “low polyreactivity”.

In the case of “QVQLVESGGGLVQAGGSLSLICAASGFIFYYYAMGWYRQAPGKERELVAGMSRRGGSTYYADSVKGRFTISRDNAKNTVYLQMNSLKPEDTAVYYCAALGDDATSYGYWGQGTQVTVSS”, the “polyreactivity (PSR sort gate)” value is “high polyreactivity”.

With “QVQLVESGGGLVQAGGSLSLICAASGRFSNAMGWYIQAPGKERELVAAITLSGTSTYYADSVKGRFTISRDNAKNTVYLQMNSLKTEDTAVYYCAAGSGYGVTWVYSPYTGVDYWGQGTQVTVSS”, the “polyreactivity (PSR sort gate)” value was “low polyreactivity”.

In the case of “QVQLVESGGGLVQAGGSLSLICAASGSIFYEYAMGWYRQAPGKEREFVAAISSSGGSTYYADSVKGRFTISRDNAKNTVYLQMNSLKPEYTAVYYCNAQVGGVSIEYDYWGQGTQVTVSS”, the “polyreactivity (PSR sort gate)” value was “low polyreactivity”.

Take “QVQLVESGGGLVQAGGSLSLSCAASGFIFNYYVMGWYRQAPGKERELVATISWRGGRTYYADSVKGRFTISRDNAKNTVYLQMNSLKPEDTAVYYCAKDSYYFTRYDYWGQGTQVTVSS”: the “polyreactivity (PSR sort gate)” value is “low polyreactivity”.

For the sequence “QVQLVESGGGLVQAGGSLSLSCAASGFIFPGNAKGWYRQAPGKERELVATISSGGSTKYADSVKGRFTISRDNANNTVYLQMNSLKPEDTAVYYCAARVYLGVFDYYYWGQGTQVTVSS”, the “polyreactivity (PSR sort gate)” value is given as “low polyreactivity”.
